B1: CPEB3 Ribozyme (parent)
chain: GGGGGCCACAGCAGAAGCGUUCACGUCGCGGCCCCUGUCAGAUUCUGGUGAAUCUGCGAAUUCUGCUGU

Data on 167 variants can be found in the RNAGym collection of RNA variant scans (doi:10.7554/elife.80360).

Variants of B1 are the subject of the series. The series can be described thus: self-cleavage, relative activity (ratio to wild type); higher = more cleavage; co-transcriptional.
On to C57U A59U, for which the self-cleavage is 0.256.
C57U A59G: the self-cleavage was determined as 0.354.
A59C C66G: the self-cleavage came to 0.441.
As to A59C C66A, the self-cleavage was 0.365.
As for A59U U69C, the self-cleavage came to 1.02.
Take G58U C63G: the self-cleavage turned out to be 1.01.
For G58U C63U the value was 1.03.
The value for G58U U61G was 0.908; that for G58U U61C was 0.892; that for C57G A59U was 0.388.
As to C57G A59G, the self-cleavage was 0.375.
For A59G U64C the value was 0.873.
The value for A59G U64A was 0.861.
On to U55G U69A, for which the self-cleavage was 0.953.
Regarding U55G U69G, the self-cleavage is 1.
For A60G U61G, the self-cleavage stood at 0.533.
For the variant A60G U61A, the self-cleavage is 0.632.
The value for G58U U67G was 1.02.
On to G58U U67C, for which the self-cleavage was 1.01.
For G58U U67A the value was 0.982.
For G58A U64C the value was 0.861.
The value for G58A U64A was 0.92; that for A60C C66G was 0.456; that for A60C C66U was 0.412.
For the variant G58A U62C, the self-cleavage is 0.872.
Take A59C U61C: the self-cleavage was 0.446.
On to A60G U69G, for which the self-cleavage turned out to be 1.01.
As to G56U U69C, the self-cleavage amounted to 1.04.
For G56U U69A the value was 1; for C57A U62G, 0.409.
The value for C57A U62C was 0.339.
The value for G58C U69G was 1.05.
On to G58C U69A, for which the self-cleavage amounted to 0.998.
Take G58C C63U: the self-cleavage is 0.997.
The value for G58C C63G was 0.823; that for G58C C63A was 0.906.
For G58A U69G the value was 1.02; for G58A U69A, 0.99; for A60C G65C, 0.449.
For A59G U62G the value was 0.944; for A59G U62C, 0.717.
Consider A60G U67C, for which the self-cleavage amounted to 0.747.
Take A60G U67G: the self-cleavage stood at 0.902.
For C57U C66A the value was 0.316.
On to C57U C66G, for which the self-cleavage stood at 0.317.
The value for G56C G65U was 0.512.
For A59C U62C the value was 0.407; for A59C U62G, 0.423; for G56C U62A, 0.355.
Consider G56C U62C, for which the self-cleavage was found to be 0.524.
For the variant A59U C66U, the self-cleavage amounted to 0.775.
The value for G56C A60U was 0.795.
For G56C A60G the value was 0.608; for G56U C57G, 0.384.
Regarding G58A G65A, the self-cleavage worked out at 0.901.
For G56A G65U, the self-cleavage was found to be 0.627.
For G56A G65A the value was 0.777.
The value for G56A G65C was 0.508; that for C57U U61G was 0.463.
With C57U U61C, the self-cleavage came out at 0.371.
The value for C57A U67G was 0.445; that for G58C G68A was 1.
G58C G68C: the self-cleavage turned out to be 0.963.
The value for G58C G68U was 1.02; that for A59C A60G was 0.535.
For A59C A60C the value was 0.38; for G58C U61A, 0.877.
For G58C U61G the value was 0.912; for G56U, 0.968.
For G56C, the self-cleavage amounted to 0.871.
G56A: the self-cleavage turned out to be 0.977.
As for A60C U62G, the self-cleavage came out at 0.429.
On to C57G U67A, for which the self-cleavage turned out to be 0.325.
Regarding C57G U67C, the self-cleavage was 0.428.
Consider C57G U67G, for which the self-cleavage is 0.489.
On to A59U U62A, for which the self-cleavage was determined as 0.536.
The value for A59U U62C was 0.546; that for A59U U62G was 0.394; that for G56A U62A was 0.811.
For G56A U62C the value was 0.732.
The value for G56A U62G was 0.775; that for A60U C63G was 0.38; that for A60U C63A was 0.391.
Consider A60U C63U, for which the self-cleavage stood at 0.479.
Consider A60G C66G, for which the self-cleavage turned out to be 0.559.
For the variant A60G C66A, the self-cleavage is 0.582.
The value for A60G C66U was 0.818; that for G56U G58A was 0.924.
G56U G58U: the self-cleavage amounted to 0.978.
Regarding G56U G58C, the self-cleavage amounted to 0.989.
For A59G U61C the value was 0.785.
For the variant G58U A60U, the self-cleavage is 0.331.
For G58U A60G the value was 0.977.
As for A59G C63G, the self-cleavage was determined as 0.691.
As for A59G C63A, the self-cleavage is 0.857.
For A59U U64A the value was 0.459.
The value for A59U U64G was 0.729; that for A59U U64C was 0.558.
The value for G58A C66U was 0.938; that for G58A C66A was 0.81; that for G58A C66G was 0.881.
Turning to G58U A59U, the self-cleavage was determined as 0.749.
Regarding G58U A59C, the self-cleavage is 0.8.
With A60U U61G, the self-cleavage worked out at 0.556.
Take A60U U61C: the self-cleavage came out at 0.629.
As to C57G G58U, the self-cleavage was 0.463.
For C57G G58A the value was 0.377; for C57G G58C, 0.356.
The value for G58C G65U was 0.842.
For G58C G65A, the self-cleavage came out at 0.844.
The value for C57G U61C was 0.377.
The value for C57G U61A was 0.399; that for C57G U61G was 0.439; that for G58A G68A was 0.944.
For A59C C63A, the self-cleavage turned out to be 0.43.
With G56C U61A, the self-cleavage came out at 0.554.
The value for G56C U61G was 0.483.
For G56C U61C the value was 0.434.
As for U55G U67C, the self-cleavage came to 0.612.
For U55G U67A the value was 0.884; for C57U U62A, 0.363; for C57U U62C, 0.41.
On to A59U G65A, for which the self-cleavage was 0.531.
For A59U G65C the value was 0.497; for A59U G65U, 0.329.
For A59G U69G the value was 1.07.
Take A59G U69A: the self-cleavage is 1.04.
As for A59G A60G, the self-cleavage worked out at 0.533.
For A59G A60U the value was 0.352; for A59C G68U, 0.939.
For A59C G68A the value was 0.908; for C57G G68A, 0.374.
For C57G G68C the value was 0.388; for A60G U62G, 0.687.
For the variant A60G U62C, the self-cleavage amounted to 0.436.
For G56U U62A the value was 0.654; for G56U U62C, 0.67.
Take G56U U62G: the self-cleavage was 0.563.
The value for C57U U67G was 0.509.
As for C57U U67C, the self-cleavage was 0.465.
For C57U U67A, the self-cleavage came out at 0.365.
For C57A A59G the value was 0.426.
For C57A A59U the value was 0.46.
Take C57U C63A: the self-cleavage came out at 0.438.
On to C57U C63G, for which the self-cleavage was 0.397.
The value for C57U U69A was 0.478.
The value for C57U U69G was 0.473.
For C57G U69C the value was 0.451.
C57G G65A: the self-cleavage was found to be 0.37.
Consider C57G G65U, for which the self-cleavage amounted to 0.254.
In the case of C57G G65C, the self-cleavage worked out at 0.428.
In the case of C57G C63A, the self-cleavage was 0.291.
The value for C57A G68A was 0.367; that for C57A G68U was 0.394.
For G56C C57U the value was 0.483; for G56C C57G, 0.343.
The value for G56C C57A was 0.3; that for G56A C63G was 0.667; that for G56A C63U was 0.943.
For G56C U67G, the self-cleavage is 0.758.
As for G56C U67C, the self-cleavage turned out to be 0.878.
For G56C U67A the value was 0.941; for G58A A60U, 0.919.
In the case of G58A A60C, the self-cleavage was determined as 0.495.
The value for G58A A60G was 0.83; that for G56A G58U was 0.994; that for G58U G65C was 0.863.
